System: MS2 coat protein
Assay: apparent KD of MS2 coat protein; designed switch direction (-1 OFF switch, 1 ON switch): -1; higher = weaker reporter binding
Summary of the method: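 SNAP-549-labelled MS2 coat protein was titrated, doubling from 0.7 or 1.5 nM to 3 µM, over designed RNA switches transcribed on Illumina chips by stalled E. coli RNA polymerase. Runs were done without input, with 200 uM small-molecule ligand, or with an oligonucleotide input. Apparent KD is the per-design median over clusters of curve-fitted normalised fluorescence.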

[1] = Eterna round: R95, input ligand: microRNA oligo, concentration not stated
[2] = input ligand: microRNA oligo, concentration not stated
[3] = Eterna round: R95, input ligand: FMN 200 uM
[4] = Eterna round: R95, input ligand: none

| Sequence | apparent KD of MS2 coat protein (input ligand: FMN 200 uM) [µM] | apparent KD of MS2 coat protein (input ligand: none) [µM] | apparent KD of MS2 coat protein [1] [µM] | apparent KD of MS2 coat protein [2] [µM] | apparent KD of MS2 coat protein [3] [µM] | apparent KD of MS2 coat protein [4] [µM] |
| --- | --- | --- | --- | --- | --- | --- |
| UUCCAACAUGAGGAUCACCCAUGUCAGGAUAUGCGACCUCCACCACCAACCUCACCUCGCAGAAGGGACACACC [Mod-Cyanosaur/default-title] (Eterna round: R97, puzzle: Exclusion 1) | 0.0242 | 0.0237 |  |  |  |  |
| UGAUCUUUUGUUAGGAUAUGCUGGGUUUUUUCUCAGCAGAAGGGACAUGAGGAUCACCCAUGUUUUGUCAUAAA [Magic-07] (puzzle: Brourd's mod of Exclusion 4) |  |  | 0.0203 |  |  |  |
| AAAUAGCUAGAGGAUAUCGGAUAGGAUUUACUACGAGAAGGUUAGACAUGAGGAUCACCCAUGUUGUGUUGGGA [EX6 #19] (Eterna round: R97, puzzle: Exclusion 6) | 0.0596 | 0.0679 |  |  |  |  |
| GCACGGAUCGUAGGAUAUCAUUGCGAUUAGCUAUGAGAAGGACGACAUGAGGAUCACCCAUGUCCUCUAAUUAGCCUUCCGUGC [Eli exng1 - 017] (Eterna round: R96, puzzle: Exclusion NG 1) | 0.0529 | 0.0385 |  | 0.0218 |  |  |
| CAGUACUGAGGAUAUACAUGAGGAUCACCCAUGUGUUCCAGCUAGGAGACUAGCAUAUGUAGAAGGCAGUACUG [jl-ex3-4.03 salish99 mod] (Eterna round: R97, puzzle: Exclusion 3) | 0.338 | 0.326 |  |  |  |  |
| CAGUACUGAGGAUAUACAUGAGGAUCACCCAUGUCUUAAAAGUAGGAUACUACUAUUAGUAGAAGGCAGUACUG [Fiskers Ex 3 828 mod 24] (Eterna round: R96, puzzle: Exclusion 3) | 0.0385 | 0.017 |  | 0.0123 |  |  |
| GAUUAAUGCAAGGAUAUGCUAUUAAUUUAUUUUGCAGAAGGUGCAACAUGAGGAUCACCCAUGUUGGAGGGUAU [JR_E6_Sub027] (Eterna round: R96, puzzle: Exclusion 6) | 0.0349 | 0.0251 |  | 0.0178 |  |  |
| CCCAGACUAGGAUAUACAAGCCGUGGCGAGGUGGGCCUGGGACAUGAGGAUCACCCAUGUAGAAGGAGUAGGUC [Eternabot (Original) Solution 31] (Eterna round: R97, puzzle: Exclusion 2) | 0.127 | 0.136 |  |  |  |  |
| AGCGCCAUCGUGAGAUGGCGUAUUACAUGAGGAUCACCCAUGUAGGAUAUCGAUUGCUUUGCAGUCGAGAAGGGCAUGUACCAG [JL ENG3 3.80 Mod K] (Eterna round: R96, puzzle: Exclusion NG 3) | 0.0547 | 0.046 |  | 0.0328 |  |  |
| GGUACUAACACGAUAGUGUUAGUACUAUAAGCUUGUGUUACAUGAGGAUCACCCAUGUCCUCAUAAGCUCGUCUUGU [Mat - Sensor v3 - Turn-off var 2 - D89] (puzzle: Sensor v3, turn-off variant 2) |  |  | 0.0529 |  | 0.0498 | 0.0448 |
| UGCUGACGAGGAUAUACAUGAGGAUCACCCAUGUUGGUCAAGCGACGAUAGUCGCAAUGUAGAAGGUGUCAGCA [E3/8-B1] (Eterna round: R97, puzzle: Exclusion 3) | 0.694 | 0.114 |  |  |  |  |
| UCUCGCGUCGAGGAUAUAUCGUGUAAGUGCGCGAUAGAAGGCGACACAUGAGGAUCACCCAUGUAGGGCCGAAC [Eternabot (Original) Solution 14] (Eterna round: R97, puzzle: Exclusion 6) | 0.149 | 0.0232 |  |  |  |  |
| AGUGCGUCAGGAUAUUCUAUUAAUUACAUGAGGAUCACCCAUGUGAAUGGACAAGGGUGUGAAGAAGGGACGUGCG [Omei Ex5 A17g] (Eterna round: R97, puzzle: Exclusion 5) | 0.36 | 0.872 |  |  |  |  |
| GCAGAAUGAGUUAGGAUAUGAUGAUUUUUCGGAAAUCAGAAGGAACUUGAGGAUCACCCAAGUUAAGAUAGGGU [JR_BMEx4_Sub065] (Eterna round: R97, puzzle: Brourd's mod of Exclusion 4) | 0.229 | 0.085 |  |  |  |  |
| UGGCUACAUGAGGAUCACCCAUGUCAGGAUAUGCCGUUGAAUUGACAUCGACGUACGGGUAGAAGGGACUGCGU [1st #10] (Eterna round: R97, puzzle: Exclusion 1) | 0.05 | 0.0416 |  |  |  |  |
| CAUACACAUGAGGAUCACCCAUGUGAGGAUAUGCGUACGUUGUCCGUAGGCGACGUGCGCAGAAGGCGCAAGGU [JL-ex1-3.17 Eli mod] (puzzle: Exclusion 1) |  |  | 0.0504 |  |  |  |
| AUAAGGUCAGGAUAUGCUUGGCUGAUUCUGGUGUCCAAAUGACAUGAGGAUCACCCAUGUAGAAGGGACAUCAG [Usgeledi] (Eterna round: R97, puzzle: Exclusion 2) | 0.0161 | 0.0151 |  |  |  |  |

| Sequence | apparent KD of MS2 coat protein (input ligand: FMN 200 uM) [µM] | apparent KD of MS2 coat protein (input ligand: none) [µM] | apparent KD of MS2 coat protein [1] [µM] | apparent KD of MS2 coat protein [2] [µM] | apparent KD of MS2 coat protein [3] [µM] | apparent KD of MS2 coat protein [4] [µM] |
| --- | --- | --- | --- | --- | --- | --- |
| AUGGUUCGAUUAGGAUAUUAUAGAUUGAAUAGUAUGAUUUACAUGAGGAUCACCCAUGUUACAUUUAAGAAGGAAUCGAAUCAU [JR_ExcNG2_Sub088] (Eterna round: R96, puzzle: Exclusion NG 2) | 0.0139 | 0.0215 |  | 0.0132 |  |  |
| ACAAGCUUUUUCGUGGGUGACAUGAGGAUCACCCAUGUUUGCCGCGUCUUGUCGUCGUGGACCUGUGGUCCAUGACG [Small mod of -44.6, -64.9 by Sellena] (Eterna round: R97, puzzle: Sensor, turn-off variant 1) | 0.137 | 0.153 |  |  |  |  |
| CUUUUGUGAGGAUAUUAAUAGUAAGUAAAUAAAAUUAUUACUAAGAAGGCACAUGAGGAUCACCCAUGUUUCUC [EX4 #83] (Eterna round: R97, puzzle: Exclusion 4) | 0.0768 | 0.0418 |  |  |  |  |
| GGGUAGGGAGGAUAUCCAAUAUAUGACAUGAGGAUCACCCAUGUUUCCACUCGUACCUCCGGAGAAGGCCCAUCCC [Ex5 #14] (Eterna round: R97, puzzle: Exclusion 5) | 0.0256 | 0.0214 |  |  |  |  |
| UUGUUAUAUGUAGGAUAUGCAUAUUAUUAUUAUGCAGAAGGACAUGAGGAUCACCCAUGUAUAUUGUUGUUAUAUAUUAUAUAU [Title] (Eterna round: R96, puzzle: Exclusion NG 1) |  |  |  | 0.0182 |  |  |
| AAAACACAUGAGGAUCACCCAUGUGAGGAUAUGUCCAUGCUCGGCAAACCGGGCAUGGACAGAAGGCACAUAAA [JR_Exclusion1_Sub015] (puzzle: Exclusion 1) |  |  | 0.0403 |  |  |  |
| GGUGUGAGGCAGGAUAUGCUAUAUGUUAGUAAUGCAGAAGGGUCUACAUGAGGAUCACCCAUGUGUGCGGUAGA [Ex6 #4] (Eterna round: R97, puzzle: Exclusion 6) | 0.345 | 0.139 |  |  |  |  |
| UAAAACCUAGGAUAUACAUGAGGAUCACCCAUGUUCGAAGGAGCCCAAGUGACUUCUAGUAGAAGGAGGGCGAA [Aratisedso] (puzzle: Exclusion 3) |  |  | 0.0188 |  |  |  |
| UAGUACAUCUAUGGGAGUAACAUGAGGAUCACCCAUGUAUGUCUUGUUUUUUGUUCGUCAUAGGCCUUUUGAUUGGC [JR_SV3TOV1_Sub028] (puzzle: Sensor v3, turn-off variant 1) |  |  | 0.228 |  | 0.107 | 0.113 |
| GUGUAGACAGGAUAUGCUUUGAGCAUAUGAGAGUAUGCUCGACAUGAGGAUCACCCAUGUAGAAGGGUCUACAC [LRO-Excl2-02] (puzzle: Exclusion 2) |  |  | 0.0129 |  |  |  |
| AAAAGAAAACGAGGAUAUGCGCGUAACGUACAUCCUCUAGACAUGAGGAUCACCCAUGUAGCGCAGCAGAAGGCGUAAAAGAAA [Orises] (Eterna round: R96, puzzle: Exclusion NG 2) | 0.724 | 0.0843 |  | 0.075 |  |  |
| UUGAAGUCGUCAGGAUAUAGAUUUAAUGUCAUGCGUAUGUUCUUACAUGAGGAUCACCCAUGUCGCUAGAAGGGACUAUAGAUU [JR_ExcNG2_Sub008] (Eterna round: R96, puzzle: Exclusion NG 2) | 0.0546 | 0.0451 |  | 0.0351 |  |  |
| AUUGGGCAAGCAUGAUCCCACAUGAGGAUCACCCAUGUGUUCGUCUUAUAGGCUGCUGAGGCUUUUGCCUCGGUGGC [LRO Sensor-off var1-02 loose mod of D91 from Mat747] (Eterna round: R97, puzzle: Sensor, turn-off variant 1) | 0.706 | 0.875 |  |  |  |  |
| GCCGAUUAAGUCAGGAUAUACCUAUGGAUACAUAGGUAGAAGGGACAUGAGGAUCACCCAUGUGCCUCAACGGC [Fiskers BMX 4 - 18] (puzzle: Brourd's mod of Exclusion 4) |  |  | 0.0189 |  | 0.0717 | 0.0227 |
| AUAAUGCAAGCAUGGUCCCACAUGAGGAUCACCCAUGUGUUCGUCUUAUAGGCUGCUGUGGCUUUUGCCUCGUUGGC [LRO Sensor-off var1-10 loose mod of D91 from Mat747] (Eterna round: R97, puzzle: Sensor, turn-off variant 1) | 0.0743 | 0.0785 |  |  |  |  |
| CCCACAGGACAUGAGGAUCACCCAUGUGCGAUAUCCUGAGCGCAGGAUAUUUUCCCACGAAAGGAAGAGAAGGGCGCCGAAAGC [Eternabot solution 1] (Eterna round: R96, puzzle: Exclusion NG 3) | 0.0246 | 0.0443 |  | 0.0296 |  |  |
| CAUUCCGAGCGAGGAUAUCAGUAAAAGGGAAGCUGAGAAGGCGCAAACAUGAGGAUCACCCAUGUCACACGCGGGUAGUUUUCC [Ditiso] (Eterna round: R96, puzzle: Exclusion NG 1) | 0.0139 | 0.0143 |  | 0.00974 |  |  |

From the supplement of paper PMC9170038
